From article PMC4692362

Target: FLAG-Nrxn1β(−SS4) (UniProt Q63373)
Test: cell surface binding with Scatchard analysis

**Q.** For “SorCS1-ecto-His (from UniProt Q9JLC4 34-1098) (domain or fragment)”, which Kd is on record?
**A.** 2.22 nM
